The text below walks through data of IntAct's records for PubMed 10545207.

B1: GTP-binding protein Rit2 (Mus musculus), P70425 (parent)
chain: MEVENEAHCCPGSSSGGSREYKVVMLGAGGVGKSAVTMQFISHQFPDYHDPTIEDAYKTQVRIDNEPAYLDILDTAGQAEFTAMREQYMRGGEGFIICYSVTDRQSFQEAAKFKELIFQVRHTYEIPLVLVGNKIDLEQFRQVSTEEGMNLARDYNCAFFETSAALRFGIDDAFQGLVREIRRKESMLSLVERKLKRKDSLWKKIKASLKKKRENML
partner: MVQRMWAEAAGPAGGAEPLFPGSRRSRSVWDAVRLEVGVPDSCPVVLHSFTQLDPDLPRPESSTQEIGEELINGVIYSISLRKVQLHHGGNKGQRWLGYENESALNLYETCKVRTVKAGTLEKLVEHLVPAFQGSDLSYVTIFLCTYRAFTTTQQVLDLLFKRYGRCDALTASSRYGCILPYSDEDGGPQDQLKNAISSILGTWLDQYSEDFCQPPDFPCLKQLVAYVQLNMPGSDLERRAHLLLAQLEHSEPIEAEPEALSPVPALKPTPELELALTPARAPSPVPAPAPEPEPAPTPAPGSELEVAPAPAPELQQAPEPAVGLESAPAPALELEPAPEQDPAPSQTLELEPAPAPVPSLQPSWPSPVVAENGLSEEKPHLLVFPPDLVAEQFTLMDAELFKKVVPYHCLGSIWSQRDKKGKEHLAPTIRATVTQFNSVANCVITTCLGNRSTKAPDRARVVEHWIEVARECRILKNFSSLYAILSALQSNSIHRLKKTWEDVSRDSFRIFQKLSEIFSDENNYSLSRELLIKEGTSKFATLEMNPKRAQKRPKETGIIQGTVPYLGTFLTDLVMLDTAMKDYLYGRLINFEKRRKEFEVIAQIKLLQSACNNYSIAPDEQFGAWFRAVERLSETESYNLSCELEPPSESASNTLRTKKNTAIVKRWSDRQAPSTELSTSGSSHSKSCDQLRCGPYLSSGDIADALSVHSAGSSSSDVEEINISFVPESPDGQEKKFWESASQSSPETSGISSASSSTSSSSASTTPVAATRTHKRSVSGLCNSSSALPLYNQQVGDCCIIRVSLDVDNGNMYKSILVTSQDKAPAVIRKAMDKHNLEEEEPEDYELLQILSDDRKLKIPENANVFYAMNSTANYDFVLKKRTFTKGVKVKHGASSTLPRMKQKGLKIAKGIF
B2: GTP-binding protein Rit2 (Mus musculus), P70425 (parent)
chain: B1 chain

The variants in one test derive from B1. The following applies: with gnds_human RALGDS.
For the variant S34N, the “effect of a mutation on the interaction” value was “decreasing interaction”.

In another test the parent is B2. The following applies: with rlf_human RLF.
In the case of S34N, the “effect of a mutation on the interaction” value was “decreasing interaction”.

A further test covers variants of B2. The settings on record: with afad_human AFDN.
On to S34N, for which the “effect of a mutation on the interaction” value was “decreasing interaction”.
